For one substance, binding signal (fold enrichment vs marA) results are on record in patent US8247195.

For the data set, the target named is H-NS (Salmonella enterica serovar Typhimurium 14028s) (UniProt A0A0F6B244). The note with it: ChIP/Q-PCR, formaldehyde crosslinked, anti-HA; value given as example of copies recovered per marA copy.
Sequence of UniProt A0A0F6B244 (A0A0F6B244 whole entry): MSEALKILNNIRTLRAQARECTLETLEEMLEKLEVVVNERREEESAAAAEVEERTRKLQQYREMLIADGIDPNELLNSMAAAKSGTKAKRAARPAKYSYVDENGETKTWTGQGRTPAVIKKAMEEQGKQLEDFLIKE

Substance proV had a binding signal (fold enrichment vs marA) of 53.6.
